The values that follow come from patent US20230127123A1 (Dana-Farber, published 2023).

What is called Kd is the free concentration of one partner at which half of the binding sites on the other are occupied at equilibrium, for simple one-to-one binding. A lower Kd goes with higher affinity. The term koff denotes the rate constant with which the complex falls apart. Higher therefore signals fast dissociation. As a reminder, the kon is the second-order rate constant of association. A high value points to fast association. One may read the EC50 (read off the curve) as the concentration needed to bring the measured effect to its halfway point.

To fix the notation:
B1: 1D2 (antibody, V domains shown)
VH: QVQLVQSGAEVKKPGSSVKVSCKASGGTFSSYAISWVRQAPGQGLEWMGGIIPIFGTANYAQKFQGRVTITADESTSTAYMELSSLRSEDTAVYYCARDGSGYDSAGMDDWGQGTLVTVSS
VL: QPGLTQPPSASGTPGQTVTISCSGSRSNIGSNYVYWYQQFPGTAPKLLIFSNNQRPSGVPDRFSGSKSGTSASLAISGLRSEDEADYYCAVWDDSLSGVVFGGGTKLTVL
notes: anti-PD-L1 clone; also called Ab 1D2
B2: 1B4 (antibody, V domains shown)
VH: QVQLVQSGGGLVKPGGSLRLSCVGSDFAFSSAWMNWVRQAPGKGLEWVGRIKSKTDGETTDYAAPVKDRFIISRDDSKNTLYLEMNSLKTEDTGVYYCTTGGLGLVYPYYNYIDVWGEGTTVTVSS
VL: LPVLTQPPSASGTPGQRVTISCSGSSSNIGSNYVYWYQQLPGTAPKLLIYRNNQRPSGVPDRFSGSKSGTSASLAISGLRSEDEADYYCAAWDDSLNGLVFGTGTRVTVL
notes: anti-PD-L1 clone; also called Ab 1B4
B3: 1H5 (antibody, V domains shown)
VH: QVQLVQSGAEVKKPGSSVKVSCKASGGTFSRYALTWVRQAPGQGLEWMGGIIPIFGRANYAQKFQGRVTITADKSTSTAYMELGSLTSDDTAVYYCAEEGAFNSLAIWGQGTMVTVSS
VL: NFMLTQPHSVSGSPGETVTISCTRSSGSIASHFVQWYQQRPGSSPTTVIFGDDQRPSGVPDRISGSIDTSSNSASLSISGLKTEDEADYYCQSYDSSNHVVFGGGTKLTVL
notes: anti-PD-L1 clone; also called Ab 1H5
B4: 1C4 (antibody, V domains shown)
VH: QVQLVQSGAEVKKPGSSVKVSCKASGGTFSRYALTWVRQAPGQGLEWMGGIIPIFGRANYAQKFQGRVTITADKSTSTAYMELGSLTSDDTAVYYCAEEGAFNSLAIWGQGTMVTVSS
VL: NFMLTQPHSVSESPGKTVTISCTRSSGSIASNYVQWYQQRPGSAPTTVIFADNQRPSGVPARFSGSIDSSSNSASLTISGLKTEDEADYYCQSYDSSNHWVFGGGTQLTVL
notes: anti-PD-L1 clone; also called Ab 1C4
B5: 1C1 (antibody, V domains shown)
VH: QVQLVQSGAEVKKPGASVKVSCKASGYTFTSYGISWVRQAPGQGLEWMGWTSPHNGLTAFAQILEGRVTMTTDTSTNTAYMELRNLTFDDTAVYFCAKVHPVFSYALDVWGQGTLVTVSS
VL: NFMLTQPHSVSESPGKTVTISCTRSSGSIASNYVQWYQQRPGSSPTTVIYEDNQRPSGVPDRFSGSIDTSSNSASLTISGLKTKDEADYYCQSYDGITVIFGGGTKLTVL
notes: anti-PD-L1 clone; also called Ab 1C1
B6: 1D4 (antibody, V domains shown)
VH: QVQLVQSGGGVVQPGRSLRLSCAASGFTFSSYAIHWVRQAPGKGLEWITTISYDGSNKYYADSVKGRFTISRDNPKNTLYLQMNSLRAEDTAVYYCARGFGGPDYWGQGTLVTVSS
VL: LPVLTQPSSLSASPGASASLTCTLRSGINVGTYRIYWYQQKPGSPPQYLLRYKSDSDKQQGSGVPSRFSGSKDASANAGILLISGLQSEDEADYYCMIWHSSAYVFGTGTKVTVL
notes: anti-PD-L1 clone; also called Ab 1D4
B7: 1A6 (antibody, V domains shown)
VH: QVQLVQSGGEVKKPGASVKVSCKASGYTLSSHGITWVRQAPGQGLEWMGWISAHNGHASNAQKVEDRVTMTTDTSTNTAYMELRSLTADDTAVYYCARVHAALYYGMDVWGQGTLVTVSS
VL: QSVLTQPPSVSVAPGQTARITCGGNNIGSKGVHWYQQKPGQAPVLVVYDDSDRPSGIPERFSGSNSGNTATLTISRVEAGDEADYYCQVWDSSSDHWVFGGGTKLTVL
notes: anti-PD-L1 clone; also called Ab 1A6
B8: 1E1. (antibody, V domains shown)
VH: QVQLVQSGVEMKKPGASVRVSCKGSGYTFSSYGISWVRQAPGQGLEWMGWISAHNGHASNAQKLEDRVTMTTDTSTNTAYMELRSLTSDDTAVYYCARVHGALYYGMDVWGQGTTVTVSS
VL: SYELTQPPSVSVAPGQTARIPCGANNIGGKSVHWYQQKPGQAPVLVVYDDRDRPSGIPERFSGSNSGNTATLTISRVEAGDEADYYCQVWDSSSDHWVFGGGTKLTVL
notes: anti-PD-L1 clone; also called Ab 1E1
B9: 14C61 (antibody, V domains shown)
VH: EVQLVQSGGEVKKPGASVKVSCKASGYTLSSHGITWVRQAPGQGLEWMGWISAHNGHASNAQKVEDRVTMTTDTSTNTAYMELRSLTPDDTAVYYCARVHAALYYGMDVWGQGTLVTVSS
VL: SYELTQPPSVSVAPRQTAKITCTRDNIESRSVNWYQQRAGQAPAVIVYDDTERPSGITVRYSGSNSGNTATLTISRVEAGDEADYYCQVWDSSGDLWVFGGGTKLTVL
notes: anti-PD-L1 clone; also called Ab 14C61
B10: 1D1 (antibody, V domains shown)
VH: QVQLVQSGAEVKKPGASVKVSCKASGYTFTSYGISWVRQAPGQGLEWMGWISAYNGHASNAQKVEDRVTMTTDTSTNTAYMELRNLTTDDTAVYYCARVHAALYYGMDVWGQGTTVTVSS
VL: SYELTQPPSVSVAPGQTARITCGGDNIGSKGVHWYQQTPGQAPVLVVYDDSDRPSGIPERFSGSKSGNTATLTISRVEAGDEADYYCQVWDSRSDHWVFGGGTRVTVL
notes: anti-PD-L1 clone; also called Ab 1D1
B11: 1C6 (antibody, V domains shown)
VH: QVQLVQSGGEVKKPGASVKVSCKASGYTLSSHGITWVRQAPGQGLEWMGWISAHNGHASNAQKVEDRVTMTTDTSTNTAYMELRSLTPDDTAVYYCARVHAALYYGMDVWGQGTLVTVSS
VL: LPVLTQPPSVSVAPGQTARITCGGNNIGSKSVHWYQQKPGQAPVLVVYDDSDRPSGIPERFSGSNSGNTATLTINRVEAGDEADYYCQVWDSSSDHWVFGGGTKLTVL
notes: anti-PD-L1 clone; also called Ab 1C6
B12: 1A3 (antibody, V domains shown)
VH: EVQLVQSGAEVKKPGASVKVSCKASGYTLSSHGITWVRQAPGQGLEWMGWISAHNGHASNAQKVEDRVTMTTDTSTNTAYMELRSLTPDDTAVYYCARVHAALYYGMDVWGQGTLVTVSS
VL: LPVLTQPPSVSVAPGQTARITCGGNNIGSKSVHWYQQKPGQAPVLVVYDDSDRPSGIPERFSGSNSGNTATLTISRVEAGDEADYYCQVWDSSSDHWVFGGGTKLTVL
notes: anti-PD-L1 clone; also called Ab 1A3
B13: 1F1 (antibody, V domains shown)
VH: QVQLVQSGGEVKKPGASVKVSCKASGYTLSSHGITWVRQAPGQGLEWMGWISAHNGHASNAQKVEDRVTMTTDTSTNTAYMELRSLTPDDTAVYYCARVHAALYYGMDVWGQGTLVTVSS
VL: QPVLTQPPSVSVAPGQTARITCGGDNIGSKGVHWLQQKPGQAPVLVVYDDRDRPSGIPERFSGSNSGSTATLTISRVEAGDEADYYCQVWDSSSDHWVFGGGTKLTVL
notes: anti-PD-L1 clone; also called Ab 1F1
B14: 1A2 (antibody, V domains shown)
VH: QVQLVQSGGEVKKPGASVKVSCKASGYTLSSHGITWVRQAPGQGLEWMGWISAHNGHASNAQKVEDRVTMTTDTSTNTAYMELRSLTADDTAVYYCARVHAALYYGMDVWGQGTTVTVSS
VL: QSVLTQPPSVSVAPGQTARITCGGNNIGSKGVHWYQQKPGQAPVLVVYDDSDRPSGIPERFSGSNSGNTATLTISRVEAGDEADYYCQVWDSSSDHWVFGGGTKLTVL
notes: anti-PD-L1 clone; also called Ab 1A2
B15: 1G1 (antibody, V domains shown)
VH: EVQLVQSGAEVKKPGSSVRVSCKASGGTFSSYAISWVRQAPGQGLEWMGRIIPILGIANYAQKFQGRVTITADKSTSTAYMELSSLRSEDTAVYYCASGSIVGAAYAFDIWGQGTTVTVSS
VL: QSVLTQPPSVSVAPGKAANLNCGGKNIGGRVVHWYQQRPGQAPVLVIYDDTDRPSGIPERFSGSNSGNTATLTITDVEVGDEADYYCQVWDSRSDHPVFGGGTTLTVL
notes: anti-PD-L1 clone; also called Ab 1G1
B16: 1H2 (antibody, V domains shown)
VH: QVQLVQSGGGLVKPGGSLRLSCAASGFTFSSYSMNWVRQAPGKGLVWISRIISDGSATTYADSVKGRFTISRDNAKNTLYLQMNSLRAEDTGVYYCARDRSEGGFDPWGQGTLVTVSS
VL: SSELTQDPAVSVALGQTVRITCQGDSLRSYYASWYQQKPGQAPVLVIYGKNNRPSGIPDRFSGSTSGNTASLTITGAQAEDEADYYCNSRDISDNQWQWIFGGGTKLAVL
notes: anti-PD-L1 clone; also called Ab 1H2

T1 sequence (Q9NZQ7 19-290 limits assumed): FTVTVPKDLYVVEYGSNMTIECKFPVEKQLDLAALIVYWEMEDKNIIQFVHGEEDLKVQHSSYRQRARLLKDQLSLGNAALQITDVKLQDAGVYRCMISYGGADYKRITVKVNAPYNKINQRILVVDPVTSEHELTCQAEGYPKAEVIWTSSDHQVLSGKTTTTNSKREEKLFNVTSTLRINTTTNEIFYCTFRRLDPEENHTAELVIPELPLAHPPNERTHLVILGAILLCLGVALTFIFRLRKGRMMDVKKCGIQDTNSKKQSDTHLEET

The target in one assay is PD-L1 (antigen of the kinetic measurements) (human, UniProt Q9NZQ7). As to the kind of experiment: kinetic measurements for aPDL1 antibodies; instrument and antigen format not stated.
PD-L1 (antigen of the kinetic measurements), sequence (Q9NZQ7 19-238 limits assumed): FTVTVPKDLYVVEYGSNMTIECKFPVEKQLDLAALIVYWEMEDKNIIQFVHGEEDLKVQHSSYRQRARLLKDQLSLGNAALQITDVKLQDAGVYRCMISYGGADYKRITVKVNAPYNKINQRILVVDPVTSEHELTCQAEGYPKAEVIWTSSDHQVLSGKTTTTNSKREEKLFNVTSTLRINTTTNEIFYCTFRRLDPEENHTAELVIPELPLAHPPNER
With B1, the Kd was found to be 989 pM, the koff was determined as 0.00133 s⁻¹ and the kon was 1.35e+06 M⁻¹ s⁻¹.
In the same order, the values of B2 are 669 pM, 0.00124 s⁻¹ and 1.85e+06 M⁻¹ s⁻¹.
For the molecule B3, binding was characterised by a dissociation constant (Kd) of 287 pM, the koff came to 0.000367 s⁻¹ and the kon amounted to 1.28e+06 M⁻¹ s⁻¹.
Consider B4, for which the Kd came out at 1160 pM.
For B5, the affinity, expressed as Kd, was 1230 pM; the koff is 0.000987 s⁻¹; the kon came to 802000 M⁻¹ s⁻¹.
Consider B6, for which the Kd was 1030 pM.
With B7, the Kd came out at 913000 pM, the koff came to 0.0113 s⁻¹ and the kon was determined as 12400 M⁻¹ s⁻¹.
For B8, the Kd was 8980 pM, the koff was determined as 0.00884 s⁻¹ and the kon was determined as 984000 M⁻¹ s⁻¹.
In the case of B9, binding was characterised by a dissociation constant (Kd) of 1910 pM.
The molecule B10 returned a Kd of 609 pM, a koff of 0.000745 s⁻¹ and a kon of 1.22e+06 M⁻¹ s⁻¹.
In turn, B11 displayed a Kd of 41600 pM, a koff of 0.01 s⁻¹ and a kon of 241000 M⁻¹ s⁻¹.
The molecule B12 came in with a Kd of 873000 pM, a koff of 0.0115 s⁻¹ and a kon of 13100 M⁻¹ s⁻¹.
In turn, B13 had a Kd of 461 pM, a koff of 0.000338 s⁻¹ and an association rate constant (kon) of 733000 M⁻¹ s⁻¹.
Molecule B14 came in with an equilibrium dissociation constant (Kd) of 679 pM.
The molecule B15 registered a Kd of 878 pM.
Consider B16, for which binding was put at a Kd of 1570 pM.

The next assay has as its target T1, PD-L1 (on 293T cells stably expressing PD-L1) (human, UniProt Q9NZQ7).
T1 construct: expressed on the surface of stably transfected 293T cells; also called CD274; B7-H1
Nature of the assay: flow cytometry on 293T cells stably expressing PD-L1, percent of cells labelled, anti-hFc secondary.
On to B1, for which the “EC50 (read off the curve)” value is ~100 pM.
In the case of B6, the “EC50 (read off the curve)” value is 200 to 300 pM.
B15: the “EC50 (read off the curve)” value is ~50 pM.
